The target of the experiment is Drosophila CMP-sialic acid synthetase (CSAS), wild-type, 3xFLAG-tagged (Drosophila). Description: SEC; clarified lysate of flies expressing CSAS-FLAG on a calibrated Superdex 75 10/30 HR column; 150 mM NaCl in 20 mM potassium phosphate pH 6.8; fractions analysed by FLAG Western blot. (In gel filtration, larger molecules generally elute earlier.)

In general, stoichiometry N refers to the number of molecules, sites or subunits per partner or assembly.

The substance “Drosophila CMP-sialic acid synthetase (CSAS), wild-type, 3xFLAG-tagged (enzyme)” yielded a stoichiometry N of 2.

Values taken from PMC12144448.
